Substrate in data set [1]: Nc1ncnc2c1ncn2[C@@H]1O[C@H](COP(=O)(O)OP(=O)(O)OP(=O)(O)O)[C@@H](O)[C@H]1O
Nature of the data set: purified protein. Conditions: 300 μM AMP constant, 2 mM MgCl2, 80 mM KCl, 100 mM Tris pH 7.5, 20°C.

Substrate in data set [2]: Nc1ncnc2c1ncn2[C@@H]1O[C@H](COP(=O)(O)OP(=O)(O)OP(=O)(O)O)[C@@H](O)[C@H]1O
Briefly: purified protein. Type of data set: biochemical, Saccharomyces cerevisiae. The conditions noted are these: 300 μM AMP constant, 2 mM MgCl2, 80 mM KCl, 100 mM Tris pH 7.5, 20°C.

The mark [3] stands for this setting: 11 residues STGDMLSAAVK inserted between Lys40 and Ser41.

This note sets out measurements from publication PMC5028032, “Linkage between Fitness of Yeast Cells and Adenylate Kinase Catalysis” (PLoS ONE, 2016).

B1: Adkeco (Escherichia coli K-12; INS40STGDMLSAAVK/R36S) (protein)
chain: MRIILLGAPGAGKGTQAQFIMEKYGIPQISTGDMLSAAVKSTGDMLSAAVKSGSELGKQAKDIMDAGKLVTDELVIALVKERIAQEDCRNGFLLDGFPRTIPQADAMKEAGINVDYVLEFDVPDELIVDRIVGRRVHAPSGRVYHVKFNPPKVEGKDDVTGEELTTRKDDQEETVRKRLVEYHQMTAPLIGYYSKEAEAGNTKYAKVDGTKPVAEVRADLEKILG
In the case of B1, in “purified protein [1]” (setting [3]), the Km (in general, the concentration of substrate that gives half-maximal velocity) was 127 ± 30 µM; the kcat (usually the maximal rate divided by the concentration of active sites) worked out at 2 s⁻¹; the kcat/Km (as a rule, the turnover number divided by the Michaelis constant) turned out to be 20000 M⁻¹ s⁻¹.

B2: Adk1yeast (Saccharomyces cerevisiae S288C) (protein)
chain: SSESIRMVLIGPPGAGKGTQAPNLQERFHAAHLATGDMLRSQIAKGTQLGLEAKKIMDQGGLVSDDIMVNMIKDELTNNPACKNGFILDGFPRTIPQAEKLDQMLKEQGTPLEKAIELKVDDELLVARITGRLIHPASGRSYHKIFNPPKEDMKDDVTGEALVQRSDDNADALKKRLAAYHAQTEPIVDFYKKTGIWAGVDASQPPATVWADILNKLGKD
notes: full-length wild type, recombinant, 15N-enriched, purified as previously described
With B2, in the data set “purified protein [2]”, the Km came to 71 ± 18 µM, the kcat was found to be 520 ± 32 s⁻¹ and the kcat/Km worked out at 7.29e+06 ± 470000 M⁻¹ s⁻¹.

B3: Adkeco (Escherichia coli K-12; G56C) (protein)
chain: MRIILLGAPGAGKGTQAQFIMEKYGIPQISTGDMLRAAVKSGSELGKQAKDIMDACKLVTDELVIALVKERIAQEDCRNGFLLDGFPRTIPQADAMKEAGINVDYVLEFDVPDELIVDRIVGRRVHAPSGRVYHVKFNPPKVEGKDDVTGEELTTRKDDQEETVRKRLVEYHQMTAPLIGYYSKEAEAGNTKYAKVDGTKPVAEVRADLEKILG
In the case of B3, in “purified protein [1]”, the Km was 34 ± 2 µM, the kcat was determined as 36 s⁻¹ and the catalytic efficiency (kcat/Km) came to 1.04e+06 M⁻¹ s⁻¹.

B4: Adkeco (Escherichia coli K-12; R36A) (protein)
chain: MRIILLGAPGAGKGTQAQFIMEKYGIPQISTGDMLAAAVKSGSELGKQAKDIMDAGKLVTDELVIALVKERIAQEDCRNGFLLDGFPRTIPQADAMKEAGINVDYVLEFDVPDELIVDRIVGRRVHAPSGRVYHVKFNPPKVEGKDDVTGEELTTRKDDQEETVRKRLVEYHQMTAPLIGYYSKEAEAGNTKYAKVDGTKPVAEVRADLEKILG
Turning to B4, in “purified protein [1]”, the Km is 193 ± 7 µM, the catalytic constant (kcat) turned out to be 19 s⁻¹ and the kcat/Km came out at 100000 M⁻¹ s⁻¹.
